The supplement of paper PMC6757056
± gives the standard deviation of the averaged measurements.

B1: library; a variant is named by its letters at N, in order (parent)
chain: GCUGUCACCGGUGUAUUACCCUAGUGGUCGACCGGUCUGAUGAGUCUNNNNNNAGACGAAACAGC

Legend:
hypoxanthine [1] = variants of: B1; assay: normalized RNA/DNA level with ligand (relative to sTRSVctl = 100) (log10 (% of sTRSVctl)); ligand: hypoxanthine (xanthine aptamer); higher = less ribozyme self-cleavage, higher mRNA level; details: ligand concentration (+) RNA-Seq: 5 mM, HEK293T, reporter: mCherry (pCS4076), ligand present: yes
Outline: (§1)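 For each 6-well well, 4 µg of library plasmid encoding mCherry-linked ribozyme switches, or eGFP-linked ones in some ligand experiments, was transfected into HEK293T. Any ligand was added 1 h before transfection, and RNA was extracted with EDTA 72 h after it, then reverse-transcribed, amplified, barcoded and sequenced. RNA level was obtained by dividing RNA reads by DNA reads, normalizing to a spiked-in non-cleaving sequence or to the top sequences, then scaling and log-transforming. The top set was 25 sequences, scaling was ×100 with log10, and ≥100 DNA reads were required.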

hypoxanthine [2] = variants of: B1; assay: normalized RNA/DNA level without ligand (relative to sTRSVctl = 100) (log10 (% of sTRSVctl)); ligand: hypoxanthine (xanthine aptamer); higher = less ribozyme self-cleavage, higher mRNA level; details: HEK293T, reporter: mCherry (pCS4076), ligand present: no
Outline: as §1

Variant | normalized RNA/DNA level with ligand (log10) (hypoxanthine [1]) | normalized RNA/DNA level without ligand (log10) (hypoxanthine [2])
CCCAGA | 1.93 ± 0.048 | 1.83 ± 0.046
UCGGGU | 1.81 ± 0.075 | 1.55 ± 0.13
UGUACC | 2 ± 0.033 | 1.92 ± 0.023
CUGGAA | 1.94 ± 0.033 | 1.771 ± 0.013
UCACCC | 1.97 ± 0.026 | 1.89 ± 0.029
CACUCA | 1.93 ± 0.024 | 1.89 ± 0.033
CGUUGU | 1.98 ± 0.05 | 1.89 ± 0.059
CGUUGA | 1.96 ± 0.024 | 1.834 ± 0.014
ACAACU | 1.885 ± 0.018 | 1.83 ± 0.037
CGUCUU | 2.01 ± 0.035 | 1.958 ± 0.018
CGGCCC | 1.979 ± 0.011 | 2.012 ± 0.0089
CCGCUC | 2.005 ± 0.0034 | 1.963 ± 0.019
AUUUUA | 1.9 ± 0.029 | 1.83 ± 0.037
UGAAGC | 1.925 ± 0.0097 | 1.807 ± 0.01
UACCCA | 1.96 ± 0.057 | 1.89 ± 0.024
UUUUAG | 1.9 ± 0.03 | 1.76 ± 0.055
AGGUUU | 1.95 ± 0.073 | 1.87 ± 0.026
AUACCU | 1.985 ± 0.013 | 1.9 ± 0.039
ACCACC | 2.012 ± 0.02 | 1.927 ± 0.0086
ACGGCA | 1.902 ± 0.019 | 1.702 ± 0.008

Variant | normalized RNA/DNA level with ligand (log10) (hypoxanthine [1]) | normalized RNA/DNA level without ligand (log10) (hypoxanthine [2])
UAUCUC | 2 ± 0.021 | 1.99 ± 0.031
GGCGGG | 1.93 ± 0.034 | 1.83 ± 0.061
GGCGGC | 1.885 ± 0.015 | 1.525 ± 0.0082
CAUCAC | 1.96 ± 0.06 | 1.92 ± 0.062
UCAAAC | 1.916 ± 0.0079 | 1.85 ± 0.03
UUGCGU | 1.97 ± 0.024 | 1.82 ± 0.067
ACCCGA | 1.95 ± 0.028 | 1.755 ± 0.0068
ACCCGC | 1.91 ± 0.02 | 1.815 ± 0.016
CAUCGU | 2 ± 0.038 | 1.94 ± 0.025
CUUUCG | 1.97 ± 0.064 | 1.903 ± 0.014
UAAGAU | 1.907 ± 0.0056 | 1.72 ± 0.057
UUGGAA | 1.942 ± 0.0068 | 1.771 ± 0.0035
CAGCUA | 1.903 ± 0.012 | 1.65 ± 0.056
CAGCUG | 1.946 ± 0.019 | 1.89 ± 0.028
CAGCUU | 1.954 ± 0.0095 | 1.86 ± 0.027
CUUGGG | 1.866 ± 0.013 | 1.587 ± 0.013
GCUCUA | 1.941 ± 0.0064 | 1.79 ± 0.035
GCCCCG | 1.92 ± 0.05 | 1.52 ± 0.021
CUCGAG | 1.9019 ± 0.00066 | 1.6 ± 0.031
UCGCCA | 2.016 ± 0.0013 | 1.81 ± 0.034

Variant | normalized RNA/DNA level with ligand (log10) (hypoxanthine [1]) | normalized RNA/DNA level without ligand (log10) (hypoxanthine [2])
UUCUUU | 1.927 ± 0.013 | 1.98 ± 0.034
UGUCAA | 1.9 ± 0.035 | 1.79 ± 0.019
GUGCGA | 1.918 ± 0.0038 | 1.58 ± 0.018
UUAGGU | 1.92 ± 0.028 | 1.8 ± 0.031
GGGUCA | 1.99 ± 0.068 | 1.91 ± 0.032
CAGCAG | 1.89 ± 0.019 | 1.68 ± 0.11
ACGCGA | 1.77 ± 0.072 | 1.29 ± 0.05
CGAUCC | 2.013 ± 0.0062 | 1.898 ± 0.0043
AUCCCC | 1.93 ± 0.025 | 1.87 ± 0.036
GGACUU | 1.94 ± 0.04 | 1.89 ± 0.04
CGCUAC | 1.86 ± 0.041 | 1.74 ± 0.074
AUGCCG | 1.837 ± 0.01 | 1.49 ± 0.089
UAUAAC | 1.9 ± 0.025 | 1.829 ± 0.017
CAUUCU | 1.91 ± 0.021 | 1.86 ± 0.034
GGAGGG | 1.883 ± 0.018 | 1.493 ± 0.0022
CCAGGC | 1.97 ± 0.041 | 1.86 ± 0.061
UCCCCG | 1.88 ± 0.025 | 1.5 ± 0.024
CCCCCU | 2.01 ± 0.038 | 1.976 ± 0.014
